Test results taken from patent publication US10137183B2, “Peptide compositions having 4 linked CTL epitopes and uses thereof” (TAIHO PHARMACEUTICAL CO., LTD., priority 2013, dated 2018).

Molecular target: T1, Human 20S immunoproteasomes (Homo sapiens, UniProt P28062+P28065+P40306)
T1 construct: purchased R&D systems
Experiment: Peptide cleavage with human 20S immunoproteasomes (i20S), LC/MS-MS of fragments
Assay type: biochemical
Settings: 66.7 μg/mL peptide, 37° C., 1, 2 or 4 hours
Procedure: Cleavage samples of peptides having 4 linked epitopes were prepared in the manner described below. Specifically, peptides having 4 linked epitopes were diluted to 66.7 μg/mL with a reaction buffer (20 mM HEPES-KOH, pH 7.8, 2 mM MgAc2, 2 mM dithiothreitol), and the resultant was dispensed into reaction tubes in amounts of 300 μL per tube. Human 20S immunoproteasomes (R&D systems) were added thereto in amounts of 2 μg per tube, the mixtures were agitated, and the resultants were then subjected to incubation with shaking at 37° C. for 1, 2, or 4 hours. […]
Subsequently, the obtained cleavage samples of the peptides having 4 linked epitopes were applied to the LC/MS-MS systems (Acquity UPLC system, Waters; Synapt G2 HDMS, Waters), so as to perform comprehensive analysis of the molecular weights of the peptide fragments. With the use of analytical software (MassLynx, ver. 4.1, SCN712, Waters), the samples were analyzed, and the peptide fragments were identified. The peptides having 4 linked epitopes were evaluated to be cleavable upon development of any of a peptide in which the epitope peptide was cleaved, a peptide comprising arginine residues added to the N terminus of the epitope peptide, or a peptide comprising an arginine dimer added to the N terminus of the epitope peptide, as a result of cleavage with immunoproteasomes.

Row | Sequence | cleavage determining the C terminal amino acids of the CTL epitope peptide
1 | ASLDSDPWV (listed as Homo sapiens) [PEP2] | required to be located at positions nearest to the C terminus
2 | ILEQSGEWWK (listed as Homo sapiens) [PEP10] | required to be located at positions nearest to the C terminus
